Assay results reported in paper PMC6379665 (Nucleic Acids Research, 2018).

Legend:
Assay in all cases: AUC
[1] = target: bacteriophage λ terminase protomer (TerL•TerS2), wild type (bacteriophage λ) (UniProt P03708)
[2] = target: T1, bacteriophage λ terminase large subunit TerL^λ-E179Q (bacteriophage λ, UniProt P03708 1-641, E179Q)
T1 sequence (looked up): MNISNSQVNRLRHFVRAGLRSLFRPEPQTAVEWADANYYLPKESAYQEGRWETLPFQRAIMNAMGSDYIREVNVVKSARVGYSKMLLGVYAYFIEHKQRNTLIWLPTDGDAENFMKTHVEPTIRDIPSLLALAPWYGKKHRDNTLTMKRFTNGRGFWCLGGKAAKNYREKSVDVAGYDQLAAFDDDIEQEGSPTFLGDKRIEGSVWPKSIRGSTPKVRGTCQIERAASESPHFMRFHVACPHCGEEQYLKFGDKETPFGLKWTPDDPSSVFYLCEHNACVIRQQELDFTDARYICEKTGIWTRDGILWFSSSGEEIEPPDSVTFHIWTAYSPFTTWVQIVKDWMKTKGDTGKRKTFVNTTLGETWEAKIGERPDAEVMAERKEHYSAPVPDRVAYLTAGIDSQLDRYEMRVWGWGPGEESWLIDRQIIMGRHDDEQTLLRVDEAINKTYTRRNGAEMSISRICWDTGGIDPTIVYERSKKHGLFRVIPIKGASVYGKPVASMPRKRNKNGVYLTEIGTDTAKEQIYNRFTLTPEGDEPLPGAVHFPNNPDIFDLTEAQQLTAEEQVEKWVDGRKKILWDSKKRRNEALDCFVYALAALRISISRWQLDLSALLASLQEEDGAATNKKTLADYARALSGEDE

[3] = target: T2, bacteriophage λ terminase large subunit TerL^λ-E179A (bacteriophage λ, UniProt P03708 1-641, E179A)
T2 sequence (looked up): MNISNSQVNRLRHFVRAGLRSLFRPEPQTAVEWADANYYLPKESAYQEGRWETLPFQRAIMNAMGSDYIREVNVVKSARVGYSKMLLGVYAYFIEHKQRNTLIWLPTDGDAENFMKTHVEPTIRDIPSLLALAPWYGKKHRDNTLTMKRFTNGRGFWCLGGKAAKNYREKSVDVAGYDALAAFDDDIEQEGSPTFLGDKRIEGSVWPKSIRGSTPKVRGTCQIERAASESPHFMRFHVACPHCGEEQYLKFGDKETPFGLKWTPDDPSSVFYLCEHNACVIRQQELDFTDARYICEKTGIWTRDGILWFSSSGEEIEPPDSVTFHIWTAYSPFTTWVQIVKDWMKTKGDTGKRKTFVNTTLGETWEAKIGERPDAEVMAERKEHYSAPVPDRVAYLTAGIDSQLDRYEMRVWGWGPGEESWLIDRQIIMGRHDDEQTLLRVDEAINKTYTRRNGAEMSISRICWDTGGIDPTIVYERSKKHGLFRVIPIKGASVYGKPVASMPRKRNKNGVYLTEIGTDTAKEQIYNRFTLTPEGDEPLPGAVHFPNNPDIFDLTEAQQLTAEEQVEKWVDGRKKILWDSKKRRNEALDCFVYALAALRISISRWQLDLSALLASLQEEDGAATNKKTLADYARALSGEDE

[4] = target: T3, bacteriophage λ terminase large subunit TerL^λ, wild type (bacteriophage λ, UniProt P03708 1-641)
T3 sequence (looked up): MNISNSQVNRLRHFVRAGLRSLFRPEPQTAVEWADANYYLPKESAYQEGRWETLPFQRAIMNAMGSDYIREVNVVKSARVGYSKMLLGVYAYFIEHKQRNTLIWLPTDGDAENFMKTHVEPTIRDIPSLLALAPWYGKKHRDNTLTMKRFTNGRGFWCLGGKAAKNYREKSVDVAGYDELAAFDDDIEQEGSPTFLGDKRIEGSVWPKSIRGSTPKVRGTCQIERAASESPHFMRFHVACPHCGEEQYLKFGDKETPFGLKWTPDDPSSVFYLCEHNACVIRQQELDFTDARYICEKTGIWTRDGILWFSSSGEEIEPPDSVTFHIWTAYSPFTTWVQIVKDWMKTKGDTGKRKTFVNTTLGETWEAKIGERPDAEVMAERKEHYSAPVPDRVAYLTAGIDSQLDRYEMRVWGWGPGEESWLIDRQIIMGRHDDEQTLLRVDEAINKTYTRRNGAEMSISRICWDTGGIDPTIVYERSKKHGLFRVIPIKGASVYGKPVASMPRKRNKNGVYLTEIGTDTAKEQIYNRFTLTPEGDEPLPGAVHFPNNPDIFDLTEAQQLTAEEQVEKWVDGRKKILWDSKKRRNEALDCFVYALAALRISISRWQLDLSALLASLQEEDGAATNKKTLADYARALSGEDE

Molecule | stoichiometry N [1] | binding result [2] | binding result [3] | binding result [4]
bacteriophage λ terminase protomer (TerL•TerS2), wild type (from UniProt P03708 1-641; P03707 1-181) (complex) | 4 |  |  | 
bacteriophage λ terminase small subunit TerS (natural protein, UniProt P03707 1-181, looked up) MEVNKKQLADIFGASIRTIQNWQEQGMPVLRGGGKGNEVLYDSAAVIKWYAERDAEIENEKLRREVEELRQASEADLQPGTIEYERHRLTRAQADAQELKNARDSAEVVETAFCTFVLSRIAGEIASILDGLPLSVQRRFPELENRHVDFLKRDIIKAMNKAAALDELIPGLLSEYIEQSG |  | binds | binds | binds
